B1: ZNF207 (parent)
chain: YQGGPPRPPMGMRPPVMSQGGRY

Drawing on the supplement of paper PMC10567573, this text covers protein stability index for 96 variants.
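Further: lentivirally expressed fusions sorted by FACS into six bins by GFP to DsRed ratio, PSI derived from sequencing read proportions per bin multiplied by bin number.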

In the data set the parent is B1. The data set can be described thus: protein stability index of a GFP-peptide fusion (GPS, HEK-293T) (PSI 1-6); higher = more stable. Conditions: c terminus: native.
For YQGGPPRPPMGMRPPVMSQKGRY [G20K], the protein stability index worked out at 2.16.
As for YQGGPPRPPMGMRPPVMSQFGRY [G20F], the protein stability index turned out to be 1.88.
With YQGGPPRPPMGMRPPVMSQSGRY [G20S], the protein stability index came to 1.67.
YQGGPPRPPMGMRPPVMSQRGRY [G20R]: the protein stability index turned out to be 2.75.
In the case of YQGGPPRPPMSMRPPVMSQGGRY [G11S], the protein stability index was found to be 1.52.
With YQGGPPRPPMLMRPPVMSQGGRY [G11L] the figure was 1.82.
As to YQGGPPRPPMIMRPPVMSQGGRY [G11I], the protein stability index worked out at 2.95.
With YQGGPPRPPMPMRPPVMSQGGRY [G11P] the figure was 1.6; with YQGGPPRPPMCMRPPVMSQGGRY [G11C], 1.81.
On to YQGGPYRPPMGMRPPVMSQGGRY [P6Y], for which the protein stability index was found to be 1.78.
For YQGGPNRPPMGMRPPVMSQGGRY [P6N], the protein stability index was found to be 2.59.
Take YQGGPHRPPMGMRPPVMSQGGRY [P6H]: the protein stability index was 2.23.
Take YQGGPLRPPMGMRPPVMSQGGRY [P6L]: the protein stability index worked out at 2.58.
The value for YQGGPERPPMGMRPPVMSQGGRY [P6E] was 2.95; that for YQGGPARPPMGMRPPVMSQGGRY [P6A] was 1.6; that for YQGGPCRPPMGMRPPVMSQGGRY [P6C] was 1.96.
For YQGGPTRPPMGMRPPVMSQGGRY [P6T], the protein stability index is 2.06.
Consider YQGGPKRPPMGMRPPVMSQGGRY [P6K], for which the protein stability index came to 2.91.
For YQGGPPRPPMGMRPPVMSQGQRY [G21Q], the protein stability index came to 2.1.
The value for YQGGPPRPPMGMRPPVMSQGPRY [G21P] was 3.63.
The value for YQGGPPRPPMGMRPPVMSQGSRY [G21S] was 1.82; that for YQGGPPRPPMGMRPPVMSQGHRY [G21H] was 1.77; that for YQGGPPRPPMGMRPPVMSQGRRY [G21R] was 2.27.
YQGHPPRPPMGMRPPVMSQGGRY [G4H]: the protein stability index amounted to 2.6.
The value for YQGYPPRPPMGMRPPVMSQGGRY [G4Y] was 2.05; that for YQGLPPRPPMGMRPPVMSQGGRY [G4L] was 1.5; that for YQGKPPRPPMGMRPPVMSQGGRY [G4K] was 2.78.
Turning to YQGMPPRPPMGMRPPVMSQGGRY [G4M], the protein stability index was 1.46.
The value for YQGEPPRPPMGMRPPVMSQGGRY [G4E] was 2.69.
With YQGWPPRPPMGMRPPVMSQGGRY [G4W], the protein stability index was 3.5.
Regarding YQGIPPRPPMGMRPPVMSQGGRY [G4I], the protein stability index turned out to be 2.34.
As to YQGSPPRPPMGMRPPVMSQGGRY [G4S], the protein stability index was found to be 3.05.
With YQGDPPRPPMGMRPPVMSQGGRY [G4D] the figure was 3.56; with YQGCPPRPPMGMRPPVMSQGGRY [G4C], 2.52; with YQGVPPRPPMGMRPPVMSQGGRY [G4V], 2.74.
On to YQGQPPRPPMGMRPPVMSQGGRY [G4Q], for which the protein stability index is 3.54.
As for YQGGKPRPPMGMRPPVMSQGGRY [P5K], the protein stability index is 2.56.
For YQGGTPRPPMGMRPPVMSQGGRY [P5T], the protein stability index came out at 3.09.
With YQGGVPRPPMGMRPPVMSQGGRY [P5V], the protein stability index was 2.82.
With YQGGEPRPPMGMRPPVMSQGGRY [P5E] the figure was 2.81; with YQGGIPRPPMGMRPPVMSQGGRY [P5I], 1.71.
Turning to YQGGAPRPPMGMRPPVMSQGGRY [P5A], the protein stability index stood at 2.27.
YQGGGPRPPMGMRPPVMSQGGRY [P5G]: the protein stability index turned out to be 2.99.
Turning to YQGGHPRPPMGMRPPVMSQGGRY [P5H], the protein stability index was 1.92.
The value for YQGGNPRPPMGMRPPVMSQGGRY [P5N] was 2.12; that for YQGGPPRPPMGMRPPFMSQGGRY [V16F] was 2.18.
With YQGGPPRPPMGMRPPIMSQGGRY [V16I] the figure was 2.03; with YQGGPPRPPMGMRPPKMSQGGRY [V16K], 2.93; with YQGGPPRPPMGMRPPCMSQGGRY [V16C], 2.44.
Turning to YQGGPPRPPMGMRPPHMSQGGRY [V16H], the protein stability index worked out at 2.71.
In the case of YQGGPPRPPMGMRPPNMSQGGRY [V16N], the protein stability index was determined as 2.65.
As for YQGGPPRPPMGMWPPVMSQGGRY [R13W], the protein stability index turned out to be 1.79.
On to YQGGPPRPPMGMMPPVMSQGGRY [R13M], for which the protein stability index turned out to be 2.1.
For YQGGPPRPPMGMIPPVMSQGGRY [R13I], the protein stability index came to 2.76.
For the variant YQGGPPRPPMGMRPPVMSQGGRC [Y23C], the protein stability index worked out at 1.97.
Regarding YQGGPPRPPMGMRPPVMSQGGRP [Y23P], the protein stability index came to 2.82.
As for YQGGPPRPPMGMRPPVMSQGGRE [Y23E], the protein stability index is 2.37.
The value for YQGGPPRPPMGMRPPVMSQGGRW [Y23W] was 3.51.
The value for YQGGPPRPPMGMRPPVMSQGGRT [Y23T] was 1.9.
As for YQGGPPRPPMGMRPPVMSQGGRL [Y23L], the protein stability index was 1.66.
Consider YQGGPPRPPMGMRPPVMSQGGRA [Y23A], for which the protein stability index is 1.98.
With YQGGPPRPPMGMRPPVMSQGGRD [Y23D] the figure was 3.11.
The value for YQGGPPRPPMGMRPPVMSQGGRS [Y23S] was 2.43; that for YQGGPPRPPSGMRPPVMSQGGRY [M10S] was 2.1; that for YQGGPPRPPVGMRPPVMSQGGRY [M10V] was 2.57.
In the case of YQGGPPRPPLGMRPPVMSQGGRY [M10L], the protein stability index was determined as 1.4.
With YQGGPPRPPMGMRPPVDSQGGRY [M17D] the figure was 2.86; with YQGGPPRPPMGMRPPVVSQGGRY [M17V], 1.49; with YQGGPPRPPMGMRPPVQSQGGRY [M17Q], 2.56.
In the case of YQGGPPRPPMGMRPPVYSQGGRY [M17Y], the protein stability index was determined as 1.75.
With YQGGPPRPPMGMRPPVKSQGGRY [M17K] the figure was 2.85; with YQGGPPRPPMGMRPPVGSQGGRY [M17G], 2.42.
Consider YQGGPPRPPMGMRPPVCSQGGRY [M17C], for which the protein stability index worked out at 4.
In the case of YQGGPPRPPMGMRPPVSSQGGRY [M17S], the protein stability index is 2.62.
With CQGGPPRPPMGMRPPVMSQGGRY [Y1C] the figure was 3.27; with GQGGPPRPPMGMRPPVMSQGGRY [Y1G], 3.87.
In the case of HQGGPPRPPMGMRPPVMSQGGRY [Y1H], the protein stability index was 2.91.
Turning to MQGGPPRPPMGMRPPVMSQGGRY [Y1M], the protein stability index worked out at 3.87.
For RQGGPPRPPMGMRPPVMSQGGRY [Y1R], the protein stability index came to 3.21.
With SQGGPPRPPMGMRPPVMSQGGRY [Y1S] the figure was 1.67; with KQGGPPRPPMGMRPPVMSQGGRY [Y1K], 3.55.
In the case of TQGGPPRPPMGMRPPVMSQGGRY [Y1T], the protein stability index was 2.64.
The value for IQGGPPRPPMGMRPPVMSQGGRY [Y1I] was 2.89; that for QQGGPPRPPMGMRPPVMSQGGRY [Y1Q] was 3.65; that for AQGGPPRPPMGMRPPVMSQGGRY [Y1A] was 3.11.
With YQGGPPSPPMGMRPPVMSQGGRY [R7S], the protein stability index amounted to 2.98.
As to YQGGPPKPPMGMRPPVMSQGGRY [R7K], the protein stability index was found to be 2.71.
For YQGGPPGPPMGMRPPVMSQGGRY [R7G], the protein stability index is 2.8.
Consider YQGGPPEPPMGMRPPVMSQGGRY [R7E], for which the protein stability index was 3.09.
In the case of YQGGPPVPPMGMRPPVMSQGGRY [R7V], the protein stability index came out at 1.66.
With YQGGPPRPPMGMRPPVMSQGGHY [R22H] the figure was 1.91; with YQGGPPRPPMGMRPPVMSQGGQY [R22Q], 1.43.
With YQGGPPRPPMGMRPPVMSQGGSY [R22S], the protein stability index amounted to 1.7.
As to YQGGPPRPPMGTRPPVMSQGGRY [M12T], the protein stability index is 2.64.
YQGGPPRPPMGSRPPVMSQGGRY [M12S]: the protein stability index is 2.64.
With YQGGPPRPPMGKRPPVMSQGGRY [M12K] the figure was 2.34.
